In test [1] the target is T1, Recombinant mouse MMR (R&D systems) (mouse, UniProt Q61830 20-1388).
T1 construct: Bought recombinant extracellular portion of mouse MMR with a C-terminal His tag; It was immobilized on the CM5 chip for SPR and coated on plates for PE-ELISA; The SPR methods say only 'MMR'; also called mMMR; recombinant MMR
T1 sequence: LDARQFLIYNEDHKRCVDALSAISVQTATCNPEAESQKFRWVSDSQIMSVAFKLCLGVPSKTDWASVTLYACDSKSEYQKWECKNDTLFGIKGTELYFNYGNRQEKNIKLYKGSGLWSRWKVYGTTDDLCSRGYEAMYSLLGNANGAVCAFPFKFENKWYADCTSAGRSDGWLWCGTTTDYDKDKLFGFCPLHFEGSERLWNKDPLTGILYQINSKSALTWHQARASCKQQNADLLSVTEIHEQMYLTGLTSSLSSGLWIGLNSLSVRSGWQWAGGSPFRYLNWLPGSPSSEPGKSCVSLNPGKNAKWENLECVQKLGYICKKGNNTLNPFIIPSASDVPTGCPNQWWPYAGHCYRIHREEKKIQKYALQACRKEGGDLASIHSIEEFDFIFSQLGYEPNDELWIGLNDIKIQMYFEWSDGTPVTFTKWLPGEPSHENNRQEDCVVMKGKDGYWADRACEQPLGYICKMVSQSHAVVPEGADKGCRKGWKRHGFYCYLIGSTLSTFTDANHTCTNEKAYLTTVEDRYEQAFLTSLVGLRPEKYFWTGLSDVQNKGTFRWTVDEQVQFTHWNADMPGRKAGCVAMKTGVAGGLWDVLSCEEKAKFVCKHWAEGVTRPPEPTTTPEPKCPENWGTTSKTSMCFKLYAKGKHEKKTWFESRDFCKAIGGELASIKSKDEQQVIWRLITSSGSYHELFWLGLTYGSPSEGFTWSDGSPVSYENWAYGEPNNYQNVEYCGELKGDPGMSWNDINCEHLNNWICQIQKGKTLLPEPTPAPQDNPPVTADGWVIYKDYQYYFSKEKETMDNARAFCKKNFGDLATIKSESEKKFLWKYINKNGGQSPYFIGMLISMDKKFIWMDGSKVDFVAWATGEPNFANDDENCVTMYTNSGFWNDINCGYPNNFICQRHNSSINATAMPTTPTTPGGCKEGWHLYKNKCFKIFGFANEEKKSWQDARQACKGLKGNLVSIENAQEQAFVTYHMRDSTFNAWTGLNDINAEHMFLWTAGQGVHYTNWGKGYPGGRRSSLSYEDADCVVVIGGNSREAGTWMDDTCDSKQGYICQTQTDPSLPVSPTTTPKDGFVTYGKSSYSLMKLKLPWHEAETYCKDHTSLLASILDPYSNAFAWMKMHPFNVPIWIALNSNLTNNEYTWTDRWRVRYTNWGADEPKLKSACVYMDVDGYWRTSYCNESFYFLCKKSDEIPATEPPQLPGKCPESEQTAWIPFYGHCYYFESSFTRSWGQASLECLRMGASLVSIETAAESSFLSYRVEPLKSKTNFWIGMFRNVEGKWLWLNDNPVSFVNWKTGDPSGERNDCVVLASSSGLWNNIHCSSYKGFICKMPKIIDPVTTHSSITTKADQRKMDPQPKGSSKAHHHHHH
Description: SPR, BIAcore T100, MMR immobilized on CM5 chip, bivalent Nb as analyte. Here is the method: (§1) Affinity analysis was performed using a BIAcore T100 (GE Healthcare) with HEPES-buffered saline running buffer (10 mM HEPES with 0.15 M NaCl, 3.4 mM EDTA and 0.005% surfactant P20 at pH 7.4). MRR was immobilized on a CM5 chip in acetate buffer 50 mM (pH 5.0), resulting in 2100 RU MMR coated on the chip. A second channel on the same chip was activated/deactivated in a similar way and served as a negative control. The MMR Nanobodies were used as analytes in eleven different concentrations, ranging from 1 to 2000 nM, at a flow rate of […]. Glycine-HCl 50 mM (pH 2.0) was used for elution. The kinetic and equilibrium parameters (kd, ka and KD) values were calculated from the combined sensogram of all concentrations using BIAcore T100 evaluation software 2.02 (GE Healthcare).
Background: SPR reads the build-up and loss of mass on a sensor chip optically.

Test [2] deals with T1, Recombinant mouse MMR (R&D systems). Description: SPR on immobilized recombinant MMR. Here is the method:
as §1
Nanobodies (Nb) were raised against the recombinant extracellular portion of MMR (α-MMR Nb), as described in the Materials and Methods (see also Example 9; Table 4). The binding characteristics of the monovalent anti-MMR nanobodies were compared using surface Plasmon resonance measurements (Table 5). […] Further, bivalent nanobodies were constructed by linking two anti-MMR nanobody 1 entities using (G₄S)₃ ([…]; SEQ ID NO:121), llama IgG2 hinge ([…]; SEQ ID NO:122) or human IgA hinge ([…] SEQ ID NO:123) linkers. […] As a negative control nanobody in all experiments, we consistently used α-BCII10 Nb, which is a binder of the β-lactamase BCII enzyme of Bacillus cereus.

The target in test [3] is T2, Recombinant human MMR (R&D systems) (human, UniProt P22897 19-1383).
T2 construct: Bought protein (R&D Systems #2534) coated on ELISA plates; also called hMMR; MRC1
T2 sequence: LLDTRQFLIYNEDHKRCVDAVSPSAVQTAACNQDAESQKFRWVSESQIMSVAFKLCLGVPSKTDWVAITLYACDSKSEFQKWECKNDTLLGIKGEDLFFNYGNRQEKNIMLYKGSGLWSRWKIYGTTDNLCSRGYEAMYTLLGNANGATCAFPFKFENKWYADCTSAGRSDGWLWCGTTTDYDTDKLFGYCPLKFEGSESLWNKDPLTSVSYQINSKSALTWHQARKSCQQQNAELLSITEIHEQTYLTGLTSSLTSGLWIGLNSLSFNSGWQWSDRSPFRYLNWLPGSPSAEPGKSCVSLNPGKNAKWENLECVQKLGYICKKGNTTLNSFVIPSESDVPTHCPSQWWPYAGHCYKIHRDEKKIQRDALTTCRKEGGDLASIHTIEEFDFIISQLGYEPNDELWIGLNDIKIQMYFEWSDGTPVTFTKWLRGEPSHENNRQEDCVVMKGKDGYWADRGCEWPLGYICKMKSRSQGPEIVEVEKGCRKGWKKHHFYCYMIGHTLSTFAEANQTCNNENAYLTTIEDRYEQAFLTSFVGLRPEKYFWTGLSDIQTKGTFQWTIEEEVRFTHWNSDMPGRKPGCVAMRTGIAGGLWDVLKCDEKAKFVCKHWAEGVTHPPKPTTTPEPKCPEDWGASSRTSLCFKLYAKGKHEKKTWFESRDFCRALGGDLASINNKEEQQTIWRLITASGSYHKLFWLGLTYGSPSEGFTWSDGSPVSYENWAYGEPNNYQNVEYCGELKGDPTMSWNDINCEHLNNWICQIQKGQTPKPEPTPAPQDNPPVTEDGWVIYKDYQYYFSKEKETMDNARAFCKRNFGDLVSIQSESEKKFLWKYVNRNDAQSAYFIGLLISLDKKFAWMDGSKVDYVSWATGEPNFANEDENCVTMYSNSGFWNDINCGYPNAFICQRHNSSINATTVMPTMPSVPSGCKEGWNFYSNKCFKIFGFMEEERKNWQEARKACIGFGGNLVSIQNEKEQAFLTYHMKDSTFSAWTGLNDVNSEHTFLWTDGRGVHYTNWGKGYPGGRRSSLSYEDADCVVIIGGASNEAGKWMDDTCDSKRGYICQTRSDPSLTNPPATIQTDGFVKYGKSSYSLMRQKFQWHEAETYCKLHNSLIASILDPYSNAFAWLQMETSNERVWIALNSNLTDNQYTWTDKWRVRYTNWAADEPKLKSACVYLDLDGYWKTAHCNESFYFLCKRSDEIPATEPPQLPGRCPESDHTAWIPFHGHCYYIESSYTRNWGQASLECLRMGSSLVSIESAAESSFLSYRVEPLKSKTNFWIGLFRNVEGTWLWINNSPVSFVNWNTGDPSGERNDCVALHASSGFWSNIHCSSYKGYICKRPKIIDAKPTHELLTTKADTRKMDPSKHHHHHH
Description: PE-ELISA, periplasmic extract on coated human MMR, OD405 at least 3x over milk-blocking proteins. On the technique in general: In an ELISA, binding on a coated surface is turned into a signal by an enzyme label.

The target of test [4] is T2, Recombinant human MMR (R&D systems). The test is described as follows: listed as a cross-reactive Nb; selection by PE-ELISA on human MMR (Example 26).
In test [5] the target is T1, Recombinant mouse MMR (R&D systems). The test is described as follows: SPR, BIAcore T100, MMR immobilized on CM5 chip, Nb as analyte. How it is done: as §1
Nanobodies (Nb) were raised against the recombinant extracellular portion of MMR (α-MMR Nb), as described in the Materials and Methods (see also Example 9; Table 4). The binding characteristics of the monovalent anti-MMR nanobodies were compared using surface Plasmon resonance measurements (Table 5). […] Further, bivalent nanobodies were constructed by linking two anti-MMR nanobody 1 entities using (G₄S)₃ ([…]; SEQ ID NO:121), llama IgG2 hinge ([…]; SEQ ID NO:122) or human IgA hinge ([…] SEQ ID NO:123) linkers. […]

The values that follow come from patent US20120301394A1 (published 2012).

B1: bivalent anti-MMR Nanobody 1 with (Gly4Ser)3 linker (VHH)
chain: QVQLQESGGGLVQPGGSLRLSCAASGNIFSINAIGWYRQAPGKQRELVATITLSGSTNYADSVKGRFSISRDNAKNTVYLQMNSLKPEDTAVYYCNANTYSDSDVYGYWGQGTQVTVSSGGGGSGGGGSGGGGSQVQLQESGGGLVQPGGSLRLSCAASGNIFSINAIGWYRQAPGKQRELVATITLSGSTNYADSVKGRFSISRDNAKNTVYLQMNSLKPEDTAVYYCNANTYSDSDVYGYWGQGTQVTVSSHHHHHH
notes: Two copies of Nb clone 1 in one chain joined by a (G4S)3 linker, with a C-terminal His tag; also called biv MMR linker 1 GS; MMR biv (Gly4Ser)3
Regarding B1, in test [1], the Kd is 4.22 nM. Also, in test [2], the “fold higher avidity compared to the monovalent clone 1 nanobody” value (“fold higher avidity” below) was found to be 5 fold.

B2: NbhMMRm11.5 (VHH)
VHH: QVQLQESGGGLVQPGGSLMLSCAASGNIFTINRMGWYRQAPGKQRELVAAITSGGNTNYADSVKGRFTISRDNAKNTVYLQMNSLKPEDTAVYYCNAAIVTMTSPYSDYWGQGTQVTVSS
notes: Tested as a periplasmic extract in PE-ELISA
As to B2, the binding result in test [3] is recorded as “binds”.

B3: NbhmMMRm7.67 (VHH)
VHH: QVQLQESGGGLVQAGGSLRLSCVDQGRTFSVNAMAWYRQAPGKQRELVASITSSGLDTQYAEGMKGRFTISKGNDKFSTYLQMNNLKPDDTAVYYCNAERWDNGMVYWGKGTQVTVSS
With B3, the binding result in test [4] is “binds”.

B4: anti-MMR Nanobody clone 1 (VHH)
VHH: QVQLQESGGGLVQPGGSLRLSCAASGNIFSINAIGWYRQAPGKQRELVATITLSGSTNYADSVKGRFSISRDNAKNTVYLQMNSLKPEDTAVYYCNANTYSDSDVYGYWGQGTQVTVSS
notes: Monovalent alpaca VHH against mouse MMR; Alexa-fluor labelled for flow cytometry and immunofluorescence; also called Anti-MMR Nb1; anti-MMR Nb clone 1
Turning to B4, the Kd in test [5] is 23.1 nM. For the same molecule, the “fold higher apparent affinity compared to nanobody clone 3” value in test [2] was 8 fold.

B5: bivalent anti-MMR Nanobody 1 with llama IgG2 hinge linker (VHH)
chain: QVQLQESGGGLVQPGGSLRLSCAASGNIFSINAIGWYRQAPGKQRELVATITLSGSTNYADSVKGRFSISRDNAKNTVYLQMNSLKPEDTAVYYCNANTYSDSDVYGYWGQGTQVTVSSAHHSEDPSSKAPKAPMAQVQLQESGGGLVQPGGSLRLSCAASGNIFSINAIGWYRQAPGKQRELVATITLSGSTNYADSVKGRFSISRDNAKNTVYLQMNSLKPEDTAVYYCNANTYSDSDVYGYWGQGTQVTVSSHHHHHH
notes: Two copies of Nb clone 1 in one chain joined by the llama IgG2 hinge linker, with a C-terminal His tag; also called biv MMR linker 2 g2c; MMR biv g2c
Regarding B5, the Kd in test [1] is 4.04 nM. In test [2], the “fold higher avidity” value stood at 5 fold.

B6: anti-MMR Nanobody clone 3 (VHH)
VHH: QVQLQESGGGLVQAGGSLRLSCAASGRTFSRDAMGWFRQAPGKEREFVAGISWSGGSTYYADSVKGRFTISRDGAKNTVNLQMNSLKPEDTAVYYCAASSIYGSAVVDGLYDYWGQGTQVTVSS
notes: also called Anti-MMR Nb3; Nb clone 3
In the case of B6, the Kd in test [5] is 191 nM.

B7: NbhMMRm12.6 (VHH)
VHH: QVQLQESGGGLVQPGGSLRLSCVVSGSFLSINHMGWYRQVSGEQRELVAAITSGGSTNYADSVKGRFTISRDSAKNTVYLQMNSLKPEDTAVYYCNADALTMLPPFDFWGQGTQVTVSS
notes: as for B2
As to B7, in test [3], the binding result is on record as “binds”.

B8: bivalent anti-MMR Nanobody 1 with human IgA hinge linker (VHH)
chain: QVQLQESGGGLVQPGGSLRLSCAASGNIFSINAIGWYRQAPGKQRELVATITLSGSTNYADSVKGRFSISRDNAKNTVYLQMNSLKPEDTAVYYCNANTYSDSDVYGYWGQGTQVTVSSSPSTPPTPSPSTPPASQVQLQESGGGLVQPGGSLRLSCAASGNIFSINAIGWYRQAPGKQRELVATITLSGSTNYADSVKGRFSISRDNAKNTVYLQMNSLKPEDTAVYYCNANTYSDSDVYGYWGQGTQVTVSSHHHHHH
notes: Two copies of Nb clone 1 in one chain joined by the human IgA hinge linker, with a C-terminal His tag; also called biv MMR linker 3 IgA; MMR biv IgA
As to B8, the Kd in test [1] stood at 4.69 nM. Moreover, the “fold higher avidity” value in test [2] amounted to 5 fold.

B9: NbhMMRm15.43 (VHH)
VHH: QVQLQESGGTLVQPGGSLRLSCAASGSTFSINNMGWYRQAPGKQRELVAGITGGNTHYADSVKGRFTISRDNAKNTMYLQMNGLKPEDTAVYYCNANWGAYWGQGTQVTVSS
notes: as for B2
Regarding B9, in test [3], the binding result was “binds”.

B10: NbhMMRm16.95 (VHH)
VHH: QVQLQESGGGLVQPGGSLGLSCAASGRIASISAMGWYRQAPGKQRELVAAITGSGRTNYADSVKGRFTISRDNAKNTVYLQMNSLKPEDTAVYYCNLLMVDYGLGLGTDYWGQGTQVTVSS
notes: as for B2
With B10, the binding result in test [3] is “binds”.
